Results from patent US20150337051A1 (MORPHOTEK, published 2015).

Key:
[1] = molecular target: T1, recombinant CHO TEM-1 Fc fusion protein (UniProt Q9HCU0); assay: ECL sandwich, competition: biotin-9G5 capture, sulfo-TAG-15F8 detection; MORAb-004 spike 25 µg/mL, TEM-1-Fc QC 2 ng/mL; recovery at 0 µg/mL MORAb-004: 106
T1 sequence (looked up): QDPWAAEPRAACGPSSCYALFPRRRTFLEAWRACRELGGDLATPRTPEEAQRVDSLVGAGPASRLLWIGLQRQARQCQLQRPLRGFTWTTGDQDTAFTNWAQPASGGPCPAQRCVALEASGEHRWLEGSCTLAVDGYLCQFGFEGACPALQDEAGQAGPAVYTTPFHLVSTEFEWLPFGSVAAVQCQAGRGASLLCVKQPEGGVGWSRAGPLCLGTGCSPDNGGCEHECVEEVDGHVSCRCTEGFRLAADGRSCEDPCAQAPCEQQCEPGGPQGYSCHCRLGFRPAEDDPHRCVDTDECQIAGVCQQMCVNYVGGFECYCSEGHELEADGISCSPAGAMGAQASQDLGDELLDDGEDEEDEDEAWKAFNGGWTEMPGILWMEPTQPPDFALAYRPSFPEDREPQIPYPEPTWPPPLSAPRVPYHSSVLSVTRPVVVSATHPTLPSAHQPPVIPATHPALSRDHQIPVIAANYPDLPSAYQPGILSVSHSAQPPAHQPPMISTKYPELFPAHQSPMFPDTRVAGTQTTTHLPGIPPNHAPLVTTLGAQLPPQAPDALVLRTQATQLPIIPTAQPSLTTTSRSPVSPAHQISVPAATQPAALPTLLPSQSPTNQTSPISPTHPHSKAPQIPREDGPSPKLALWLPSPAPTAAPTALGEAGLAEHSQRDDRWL

[2] = molecular target: T1, recombinant CHO TEM-1 Fc fusion protein; assay: ECL sandwich, competition: biotin-9G5 capture, sulfo-TAG-15F8 detection; MORAb-004 spike 6.25 µg/mL, TEM-1-Fc QC 50 ng/mL; recovery at 0 µg/mL MORAb-004: 104
[3] = molecular target: T1, recombinant CHO TEM-1 Fc fusion protein; assay: ECL sandwich, competition: biotin-9G5 capture, sulfo-TAG-15F8 detection; MORAb-004 spike 1.5625 µg/mL, TEM-1-Fc QC 2 ng/mL; recovery at 0 µg/mL MORAb-004: 106
[4] = molecular target: T1, recombinant CHO TEM-1 Fc fusion protein; assay: ECL sandwich, competition: biotin-9G5 capture, sulfo-TAG-15F8 detection; MORAb-004 spike 12.5 µg/mL, TEM-1-Fc QC 50 ng/mL; recovery at 0 µg/mL MORAb-004: 104
[5] = molecular target: T1, recombinant CHO TEM-1 Fc fusion protein; assay: ECL sandwich, competition: biotin-9G5 capture, sulfo-TAG-15F8 detection; MORAb-004 spike 3.125 µg/mL, TEM-1-Fc QC 0.4 ng/mL; recovery at 0 µg/mL MORAb-004: 109
[6] = molecular target: T1, recombinant CHO TEM-1 Fc fusion protein; assay: ECL sandwich, competition: biotin-9G5 capture, sulfo-TAG-15F8 detection; MORAb-004 spike 1.5625 µg/mL, TEM-1-Fc QC 0.08 ng/mL; recovery at 0 µg/mL MORAb-004: 114
[7] = molecular target: T1, recombinant CHO TEM-1 Fc fusion protein; assay: ECL sandwich, competition: biotin-9G5 capture, sulfo-TAG-15F8 detection; MORAb-004 spike 3.125 µg/mL, TEM-1-Fc QC 0.08 ng/mL; recovery at 0 µg/mL MORAb-004: 114
[8] = molecular target: T2, TEM-1 in a native state on aortic smooth muscle cells (AoSMC) (UniProt Q9HCU0); assay: flow cytometry on AoSMC, primary antibody then FITC secondary; cells only 2.5, secondary only 3.9
T2 sequence (looked up): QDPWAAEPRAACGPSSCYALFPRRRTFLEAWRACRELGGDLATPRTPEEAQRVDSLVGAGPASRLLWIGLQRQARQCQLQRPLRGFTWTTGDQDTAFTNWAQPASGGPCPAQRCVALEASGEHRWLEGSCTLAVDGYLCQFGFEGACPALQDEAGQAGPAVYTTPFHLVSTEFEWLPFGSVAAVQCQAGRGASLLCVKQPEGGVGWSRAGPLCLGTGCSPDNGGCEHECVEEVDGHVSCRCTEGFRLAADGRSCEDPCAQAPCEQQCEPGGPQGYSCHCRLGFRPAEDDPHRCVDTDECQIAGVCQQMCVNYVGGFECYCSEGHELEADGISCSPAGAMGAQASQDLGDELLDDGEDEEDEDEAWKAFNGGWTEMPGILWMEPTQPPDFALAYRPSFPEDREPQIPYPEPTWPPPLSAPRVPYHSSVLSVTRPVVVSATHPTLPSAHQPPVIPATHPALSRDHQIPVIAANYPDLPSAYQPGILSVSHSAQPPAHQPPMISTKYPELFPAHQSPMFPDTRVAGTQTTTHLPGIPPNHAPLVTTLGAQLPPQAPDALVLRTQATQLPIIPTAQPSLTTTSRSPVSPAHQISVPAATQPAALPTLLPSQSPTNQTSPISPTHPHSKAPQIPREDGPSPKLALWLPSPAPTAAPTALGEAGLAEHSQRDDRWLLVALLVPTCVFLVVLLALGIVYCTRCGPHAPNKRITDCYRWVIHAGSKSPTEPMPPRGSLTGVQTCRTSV

[9] = molecular target: T1, recombinant CHO TEM-1 Fc fusion protein; assay: ECL sandwich, competition: biotin-9G5 capture, sulfo-TAG-15F8 detection; MORAb-004 spike 0.78125 µg/mL, TEM-1-Fc QC 10 ng/mL; recovery at 0 µg/mL MORAb-004: 105
[10] = molecular target: T1, recombinant CHO TEM-1 Fc fusion protein; assay: ECL sandwich, competition: biotin-9G5 capture, sulfo-TAG-15F8 detection; MORAb-004 spike 50 µg/mL, TEM-1-Fc QC 50 ng/mL; recovery at 0 µg/mL MORAb-004: 104
[11] = molecular target: T1, recombinant CHO TEM-1 Fc fusion protein; assay: ECL sandwich, competition: biotin-9G5 capture, sulfo-TAG-15F8 detection; MORAb-004 spike 12.5 µg/mL, TEM-1-Fc QC 2 ng/mL; recovery at 0 µg/mL MORAb-004: 106

B1: MORAb-004 (antibody, INN chains, looked up, V domains shown)
VH: QVQLQESGPGLVRPSQTLSLTCTASGYTFTDYVIHWVKQPPGRGLEWIGYINPYDDDTTYNQKFKGRVTMLVDTSSNTAYLRLSSVTAEDTAVYYCARRGNSYDGYFDYSMDYWGSGTPVTVSS
VL: DIQMTQSPSSLSASVGDRVTITCRASQNVGTAVAWLQQTPGKAPKLLIYSASNRYTGVPSRFSGSGSGTDYTFTISSLQPEDIATYYCQQYTNYPMYTFGQGTKVQIK
Question: Which results are given for B1?
Answer: % Recovery of TEM-1 QCs spiked with MORAb-004 [1]: 89.1%; % Recovery of TEM-1 QCs spiked with MORAb-004 [2]: 95.7%; % Recovery of TEM-1 QCs spiked with MORAb-004 [3]: 98.9%; % Recovery of TEM-1 QCs spiked with MORAb-004 [4]: 92.1%; % Recovery of TEM-1 QCs spiked with MORAb-004 [5]: 101%; % Recovery of TEM-1 QCs spiked with MORAb-004 [6]: 103%; % Recovery of TEM-1 QCs spiked with MORAb-004 [7]: 103%; Geometric mean of resulting FACS plot [8]: 103; % Recovery of TEM-1 QCs spiked with MORAb-004 [9]: 100%; % Recovery of TEM-1 QCs spiked with MORAb-004 [10]: 93.1%; % Recovery of TEM-1 QCs spiked with MORAb-004 [11]: 92.8%
